The sequences below were run on K4 kissing-loop RNA reporter (assay: apparent KD of K4 kissing-loop reporter; higher = weaker reporter binding). Conditions: Eterna round: R107; input ligand: theophylline 20 uM.
Experimental: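 RNA-MaP round R107: designed RNA switches with theophylline, tryptophan, arginine or FMN aptamers are transcribed on-chip within common flanks. They are titrated with a labelled K4 kissing-loop RNA reporter in RNA-MaP buffer (100 mM Tris pH 7.5, 80 mM KCl, 4 mM MgCl2), without ligand or with the indicated ligand. Median apparent KD per design.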
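Note: bound reporter read as fluorescence of individual clusters on recovered sequencing chips by microscopy, with normalized cluster intensities fitted with a binding model.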

Sequence | apparent KD of K4 kissing-loop reporter
GGGCAUCUGGCUGAUACCAGUGAUAAAGGGUAAGAGACAGGGAGUGAUGUUCCCUUUAGCCACCCUUGGCAGCAGUUUAAGUUUG [Exclusion Theophylline B GF 17] | 0.0854 µM
GUCUCAAAAGAGGCAAGCACUCACGAGGACAAGGAUAUCAUAUCAAUGAGAAGGUGUCCUCGUCCUCAGUGAUGUUGAGGAGUGC [Omei KL FMN A SS E v4] | 0.233 µM
AAAAUAAUCCAGUGAUGUUGGUUUCCAGAUACCAGCGACGAAAGUCGCCCUUGGCAGCUGUGGACGUACAAAAUAAGUACGUCCU | 0.276 µM
AGCUCAGAGUGACUCGAUAAGAGUCACAAACGAGGACCGGUACGGCCGCCACUCGAAAUAACGAGAGUGAUGUUCUCGCUGGGCA [FiskerMod 1 - Jieux - Same State Tryptophan A] | 0.54 µM
AGUUCUUGCCGAAGGAGCGAGGCAGAGUGAUGUUCUGCAGGAGGUCGAAAGACCUCCCUGCCUCAGGUAGGUCGCGGCAUGAACA [Omei KL Arginine B Exc A v1] | 0.566 µM
UUAUGUUUAGUUCACCCAGUGAUGUUGGAAGGAGCGUGCGAAAGCACAGGUAGGUCGCCAACCUUAAAGUGUCUUGAUUAUCUAA [JR_Nu_ExcArginiA_Sub029] | 0.386 µM
CGCAGUGAUGUUGCUAUUAUUCUUGGUUAACGAGGACCGGUACGGCCGCCACUCGGUUUCUAUCUAAUCCAGUGUUUUUUUGAGU [#24 K4 Tryptophan A Exclusion] | 0.573 µM
ACCAUCAAAGAUGGCCAGGACUCAACUGAUACCAGAGUGAAAACACUCCCUUGGCAGCAGGUGAGUGAUGUUCACGAGUCCUGGA [Omel KL Theo A SS B v7] | 0.169 µM
GUCAGACCGGGACUCCAGUGAUGUUGGAGGCAGGAUAUCCAGUCGAGGAGAAGGGCCAGGGAUAUCGAGCUGCUCGGUUUGUAGU [Xexezaes] | 0.102 µM
CCUGAUCCUAGUGAUGUUAGGUCCAACGGCCGAGGACCGGUACGGCCGCCACUCGUCAAUUGGAAACAGCCCACGGGCACCGGGU [theeternabot_sameState_KL_Trp_A_19] | 0.814 µM
AUUUUAUUAACUGAUACCAGACUUAAUGAAUUGUAAAUUACUAGUGAUGUUAGUGAUUCUGUCCCUUGGCAGCAGUAUUUAUUAA [JR_ExcTheophyB_Sub012] | 0.141 µM

Same assay, conditions: Eterna round: R107; input ligand: tryptophan 2.4 mM

Sequence | apparent KD of K4 kissing-loop reporter
UAGUGAUGCUAUGUUAGGUUUUUUAGGGAAGGAGCGCCAAAGAAGGCAGGUAGGUCGCCCUAUAUUCCCAGUGAUGUUGGGUAUU [Skye_Ex_AA] | 0.0655 µM
AUUUUUUUGUCAGGAUAUUAGUGUGCGUUUGGUUUGUUAGUGAUGUUGAUAUUUUGUUUAUGUAUUUAAGAAGGGAUUUAGCGGU [aaeatemullin] | 0.349 µM
GGAUUCACCAGUGAUGUUGGAGAAAACUCGAAGGAUAUGACGAAAGUCAGAAGGUCGUAGACUGGACAAAGUCCGGUCGGAUCCA [KL-SSFMN-A22] | 0.279 µM
CGAAGAGAGUGAUGUUCUCUAGGCAAAAGAAAGGAUAUAAUGUUUGUUAGAAGGUUCGGAAAAUGGAACGUCGGCCCGUACAACC [theeternabot_exclusion_KL_FMN_A_18] | 0.121 µM
CUUCGAUUAACAGAUACCAGUCACUUUGGAGCCACACACAAGUGAGUGAUGUUCACUUGUGACCCUUGGCAGCUGUUAGUCGAAG [Theo B Ex t1] | 0.0881 µM
UUUUUGGAGAAUUAUAGUGAUGUUAUGAAGGAGGAUAUCUGGAGAUGGAGAAGGCCUAGUGGCUCAGCCCUCGAGGGUGGGUGGG [ExFMNA.aC] | 0.354 µM
AGUGAUAUAUGAGGAUAUGGGUUAAUUAGUGAGUGAUUUUUAGUGUUGUUUGAUUAGUGAUGUUAUUUAGAAGGCGUGAGUGAUG [mvvmjmullin] | 0.0794 µM
CGCAGUGAUGUUGCGAACAUAAUGCAUUCAGAGGAUAUUCGUUUGGGAAGAAGGCUGAAUCGUUUUUCGAGUGAUGUUUGAGGAA [Same State FMN A GF 18] | 0.0946 µM
AUUUGUUUAUGCGAUACCAGACUAAGCAGUGAUGUUGCUUUUAUUUUUGAAUUUUAAAUAGUCCCUUGGCAGCGCUAUGUCUGUA [#06 K4 Theophylline B Same State] | 0.119 µM
UAAGCUCUGACGGCCGCCACUGCACGUGAAUCAGUGGUGGCUAACAUGAGUGAUGUUCAUGUAAGCAGGACCGGGUCAGAGCUAA [KL-XTryp-B14 #analogue] | 0.109 µM
CCAUCGCUAUUCGAUACCAGUCAGGAGGUCUGUGACCUCCUAAUGGAGUGAUGUUCCUUAGACCCUUGGCAGCGAAUAGUGAUGG [#02 K4 Theophylline B Same State] | 0.202 µM
UCGAAGGAUGGAAGGAGCGCUCGUCAGCCCUGCGAGUGAUGUUCGUGGGUAAAUAGUCGCGAGCAGGUAGGUCGCCAUCUUGAGC [Ritera] | 0.116 µM
UCUUAACUAAAAUAAUGGGAUACCAGUGAUACCAGCCAUAUGCAGGGCCCUUGGCAGCACCCUUGGCAGCCUCGAGUGAUGUUCG [KL-SSTheo-A7 #DoubleAptamer] | 0.23 µM
GCCGUACGCAUGGAUACCAGAUCUAGACGCUUAGUGAUGUUAAGUAAUCUGGUUAGACCGAUCCCUUGGCAGCCAUGCGUACGGC | 0.2 µM
GCCGUACGCAUGGAUACCAGACAACCAUUCUAAAUUUUGUGUCCGGUAGUGAUGUUACCUGUCCCUUGGCAGCCAUGCGUACGGC | 0.338 µM
GAACGGCGGGCGGCCGCCACUGGUAUACGAGUGAUGUUCGGAUAUACGUGAUGUAAGGUAAUUAUCAGGACCGGGUCAGAGCCGG [#16 K4 Tryptophan B Same State] | 0.167 µM
UGUCAUUGGUCGGCCGCCACUAGGACCGGGUAUAACCUAGUGAUGUUAGUAAAUACGGCCGCCACUAGGACCGGGACCGAUGACU [KL-SSTryp-B18 #DoubleAptamer] | 0.102 µM
AAGUCAUAGGCAGGAUAUGCAUUGUAGUAAGGCAAUAUAUACGUAUAGAGUGAUGUUUUGUACCAGGCAGAAGGGCUACAUCAGU [FMN B Excl V11 (+G)] | 0.492 µM
GCUAUGGUAGGAAGGAGCGCGGACGAAAUAUAUCGAGUGAUGUUCGAAUAAUUAAAUAAAACGCAGGUAGGUCGCCUACUAUAGC [Arginine B K4 25] | 0.0976 µM
AGACUACCACACUGUCAAUAGACAGUGGACUAGGAUAUGCUGAUAAGCAGAAGGAGUGAUGUUCCUAGGUAGUCAAUAAAAUAAU [FmnAX 13 G28] | 0.396 µM
UUUCUACCGGGAAGGAGCGUGAAUGAUAAUGGAUAUAGUGAUGUUAUAUAUACGAACGAAUCGCAGGUAGGUCGCCCGGAUCACU [SSArgB.U] | 1.09 µM
GCCGUAGAUGGAAGGAGCGUGGUGGACUCGUGAAGUGAUGUUUCAAGUCGUUAUGCCCAACCACAGGUAGGUCGCCAUCUACGGC | 0.251 µM

Sequence | apparent KD of K4 kissing-loop reporter
UGCAGUGAUGUUGCUAUUUGUCUUGAUUAACGAGGACCGGUACGGCCGCCACUCGAUUUCUCUCUAAUCGAGUAUGUUGUUUAGU [#19 K4 Tryptophan A Exclusion] | 0.114 µM
UAAUUGCAGUGAUGUUGCAAAUGUCCUGACUAGGAUAUCAGGAAACUGAGAAGGAGUCCCUUCUAUUGCAACAAGAAGGAGGAUA [KL-SSFMN-A14] | 0.287 µM
AAUAUAAAGCAGUGAUGUUGCUUAUGAGAAGGAGCGCACGAAAGUGCAGGUAGGUCGCUCAGCCAAGUGGACGAAAACGUCCACA [whbob_SS_Arginine_A_sa106] | 0.0721 µM
GGAUCCACCAGUGAUGUUGGAGAAAACUCAAAGGAUAUGACGAAAGUCAGAAGGUUGUAGACUGGACAAAGUCCGGUCGGAUCCA [FmnA 19 A30+U56] | 0.475 µM
UUGAGCCGGACGUAAGUCCGGCUCUGCGAGCGAGGACCGGUACGGCCGCCACUCGGUGCAGUGAUGUUGCAUGGCCGCAAGGCCG [#2 Exclusion - Tryptophan A Attempt #5 (HarryS)] | 0.278 µM
UGCACGGGCUCGGCCGCCACUCCAGCGGGUCGCAAGGUCCGCUACUGAGUGAUGUUCGGUUGGAGGAGGACCGGGAGCCCGUGCG [#2 Exclusion - Tryptophan B Attempt #31 (HarryS)] | 0.126 µM
AUCUUGUUUGGAGGAUAUUCUUUAUUUGACAUAACCUUCUAUAAGGUGCAGUGAUGUUGCAAUAUAGGAGAAGGUCGAGUGAGAU [Exclusion FMN B GF 18] | 0.177 µM
AGGGUUUAACACGAUACCAGCCUGGAGGCCAGUGAUGUUGGCCGAUUUGAACAGAAUUAAGGCCCUUGGCAGCGUCUUUAAAACC [Biarat] | 0.153 µM
GAGUUUCGUAAAGGAUAUUCUAGCUAAAGCCAUUAGUGAUGUUGAUGUACGGACGGAAGCCUGGCAGAAGAAGGUUAACAGGAUU [theeternabot_sameState_KL_FMN_B_24] | 0.312 µM
AGUGAUGUGGGAAGGAGCGGUAUAAGAAUUCAGUGAUGUUGAAGUGUUGCAGAAAUAAAAGGCCAGGUAGGUCGCCUAGAUGUUA [KL-XARG B29] | 0.243 µM
GGGCAUCUGGCUGAUACCAGUGAUAAAGGGUAAGAGACAGGGAGUGAUGUUCCCUUUAGCCACCCUUGGCAGCAGUUUAAGUUUG [Exclusion Theophylline B GF 17] | 0.0764 µM
GUCUCAAAAGAGGCAAGCACUCACGAGGACAAGGAUAUCAUAUCAAUGAGAAGGUGUCCUCGUCCUCAGUGAUGUUGAGGAGUGC [Omei KL FMN A SS E v4] | 0.257 µM
AAAAUAAUCCAGUGAUGUUGGUUUCCAGAUACCAGCGACGAAAGUCGCCCUUGGCAGCUGUGGACGUACAAAAUAAGUACGUCCU | 0.3 µM
AGCUCAGAGUGACUCGAUAAGAGUCACAAACGAGGACCGGUACGGCCGCCACUCGAAAUAACGAGAGUGAUGUUCUCGCUGGGCA [FiskerMod 1 - Jieux - Same State Tryptophan A] | 0.296 µM
AGUUCUUGCCGAAGGAGCGAGGCAGAGUGAUGUUCUGCAGGAGGUCGAAAGACCUCCCUGCCUCAGGUAGGUCGCGGCAUGAACA [Omei KL Arginine B Exc A v1] | 0.478 µM
UUAUGUUUAGUUCACCCAGUGAUGUUGGAAGGAGCGUGCGAAAGCACAGGUAGGUCGCCAACCUUAAAGUGUCUUGAUUAUCUAA [JR_Nu_ExcArginiA_Sub029] | 0.364 µM
CGCAGUGAUGUUGCUAUUAUUCUUGGUUAACGAGGACCGGUACGGCCGCCACUCGGUUUCUAUCUAAUCCAGUGUUUUUUUGAGU [#24 K4 Tryptophan A Exclusion] | 0.246 µM
ACCAUCAAAGAUGGCCAGGACUCAACUGAUACCAGAGUGAAAACACUCCCUUGGCAGCAGGUGAGUGAUGUUCACGAGUCCUGGA [Omel KL Theo A SS B v7] | 0.147 µM
GUCAGACCGGGACUCCAGUGAUGUUGGAGGCAGGAUAUCCAGUCGAGGAGAAGGGCCAGGGAUAUCGAGCUGCUCGGUUUGUAGU [Xexezaes] | 0.0674 µM
CCUGAUCCUAGUGAUGUUAGGUCCAACGGCCGAGGACCGGUACGGCCGCCACUCGUCAAUUGGAAACAGCCCACGGGCACCGGGU [theeternabot_sameState_KL_Trp_A_19] | 0.783 µM
AUUUUAUUAACUGAUACCAGACUUAAUGAAUUGUAAAUUACUAGUGAUGUUAGUGAUUCUGUCCCUUGGCAGCAGUAUUUAUUAA [JR_ExcTheophyB_Sub012] | 0.118 µM
